Data taken from patent US20180155451A1 (published 2018).

T1: FcγRIIb (human, UniProt P31994 43-217)
T1 construct: extracellular domain; also called 2b; FcgRIIb
T1 sequence (looked up): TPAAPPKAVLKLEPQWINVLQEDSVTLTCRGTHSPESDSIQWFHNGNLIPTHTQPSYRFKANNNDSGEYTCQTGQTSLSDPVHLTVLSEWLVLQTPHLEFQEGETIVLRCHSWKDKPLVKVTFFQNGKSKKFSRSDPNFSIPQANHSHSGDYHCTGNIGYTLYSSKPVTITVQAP

T2: FcγRIIa R (human, UniProt P12318 34-217)
T2 construct: extracellular domain; also called FcgRIIa R type; 2aR
T2 sequence (looked up): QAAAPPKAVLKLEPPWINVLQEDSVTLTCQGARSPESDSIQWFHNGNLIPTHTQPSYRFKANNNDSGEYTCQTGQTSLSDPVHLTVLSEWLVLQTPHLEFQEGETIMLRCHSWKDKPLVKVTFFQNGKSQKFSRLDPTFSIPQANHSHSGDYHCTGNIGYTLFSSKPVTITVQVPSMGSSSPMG

B1: GpH7-B3 variant G237_02A/GpL16-k0 (antibody, human IgG1, kappa)
heavy: not shown
light: DIVMTQSPLSLPVTPGEPASISCQASESLVHSNRNTYLHWYLQKPGQSPQLLIYKVSNRFSGVPDRFSGSGSGTDFTLKISRVEAEDVGVYYCSQNTHVPPTFGQGTKVEIERTVAAPSVFIFPPSDEQLKSGTASVVCLLNNFYPREAKVQWKVDNALQSGNSQESVTEQDSKDSTYSLSSTLTLSKADYEKHKVYACEVTHQGLSSPVTKSFNRGEC
notes: also called Ho Ab G237_02A
B2: GpH7-B3 variant G237_04F/GpL16-k0 (antibody, human IgG1, kappa)
heavy: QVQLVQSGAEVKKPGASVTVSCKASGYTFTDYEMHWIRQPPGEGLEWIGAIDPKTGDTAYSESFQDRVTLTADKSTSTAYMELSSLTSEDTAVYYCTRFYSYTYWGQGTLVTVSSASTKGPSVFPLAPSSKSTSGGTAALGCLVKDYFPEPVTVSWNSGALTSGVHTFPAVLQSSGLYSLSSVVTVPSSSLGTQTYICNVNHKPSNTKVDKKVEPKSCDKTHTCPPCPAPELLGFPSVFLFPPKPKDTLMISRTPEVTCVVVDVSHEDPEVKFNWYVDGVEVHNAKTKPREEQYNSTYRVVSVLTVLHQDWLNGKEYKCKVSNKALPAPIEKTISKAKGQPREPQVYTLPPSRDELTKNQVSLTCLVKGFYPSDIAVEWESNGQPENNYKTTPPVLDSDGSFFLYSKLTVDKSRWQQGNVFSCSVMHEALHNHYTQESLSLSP
light: B1 light
notes: also called Ho Ab G237_04F
B3: GpH7-B3 variant G237_08L/GpL16-k0 (antibody, human IgG1, kappa)
heavy: not shown
light: B1 light
notes: also called Ho Ab G237_08L
B4: GpH7-B3 variant A330_01G/GpL16-k0 (antibody, human IgG1, kappa)
heavy: not shown
light: B1 light
notes: also called Ho Ab A330_01G
B5: GpH7-B3 variant G237_06M/GpL16-k0 (antibody, human IgG1, kappa)
heavy: not shown
light: B1 light
notes: also called Ho Ab G237_06M
B6: GpH7-B3 variant A330_05P/GpL16-k0 (antibody, human IgG1, kappa)
heavy: not shown
light: B1 light
notes: also called Ho Ab A330_05P
B7: GpH7-B3 variant A327_18N/GpL16-k0 (antibody, human IgG1, kappa)
heavy: not shown
light: B1 light
notes: also called Ho Ab A327_18N
B8: GpH7-B3 variant A327_07I/GpL16-k0 (antibody, human IgG1, kappa)
heavy: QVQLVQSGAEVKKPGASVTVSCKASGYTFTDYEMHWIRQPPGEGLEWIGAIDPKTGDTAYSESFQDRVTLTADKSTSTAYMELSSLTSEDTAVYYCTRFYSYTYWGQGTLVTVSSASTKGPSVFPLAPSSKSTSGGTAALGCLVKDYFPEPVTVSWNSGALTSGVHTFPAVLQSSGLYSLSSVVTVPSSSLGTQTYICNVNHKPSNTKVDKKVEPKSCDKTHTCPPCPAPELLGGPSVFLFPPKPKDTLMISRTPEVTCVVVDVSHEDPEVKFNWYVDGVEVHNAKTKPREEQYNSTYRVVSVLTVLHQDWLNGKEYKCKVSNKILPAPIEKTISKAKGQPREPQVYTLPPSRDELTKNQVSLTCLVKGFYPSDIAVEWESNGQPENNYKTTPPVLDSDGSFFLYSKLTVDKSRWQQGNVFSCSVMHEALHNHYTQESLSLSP
light: B1 light
notes: also called Ho Ab A327_07I
B9: GpH7-B3 variant N325_13S/GpL16-k0 (antibody, human IgG1, kappa)
heavy: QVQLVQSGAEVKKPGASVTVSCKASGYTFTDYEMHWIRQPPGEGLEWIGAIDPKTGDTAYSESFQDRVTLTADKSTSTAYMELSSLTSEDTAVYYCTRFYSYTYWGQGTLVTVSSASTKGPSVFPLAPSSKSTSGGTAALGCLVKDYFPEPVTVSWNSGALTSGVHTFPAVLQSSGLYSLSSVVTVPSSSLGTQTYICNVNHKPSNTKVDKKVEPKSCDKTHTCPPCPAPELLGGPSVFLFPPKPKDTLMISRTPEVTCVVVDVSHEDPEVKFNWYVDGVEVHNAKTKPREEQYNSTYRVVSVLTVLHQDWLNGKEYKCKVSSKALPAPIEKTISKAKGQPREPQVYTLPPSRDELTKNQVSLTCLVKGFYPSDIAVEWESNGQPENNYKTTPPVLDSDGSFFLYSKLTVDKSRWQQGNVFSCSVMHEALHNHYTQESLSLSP
light: B1 light
notes: also called Ho Ab N325_13S
B10: GpH7-B3 variant P331_16H/GpL16-k0 (antibody, human IgG1, kappa)
heavy: not shown
light: B1 light
notes: also called Ho Ab P331_16H
B11: GpH7-B3 variant K334_08L/GpL16-k0 (antibody, human IgG1, kappa)
heavy: not shown
light: B1 light
notes: also called Ho Ab K334_08L
B12: GpH7-B3 variant N325_09D/GpL16-k0 (antibody, human IgG1, kappa)
heavy: not shown
light: B1 light
notes: also called Ho Ab N325_09D
B13: GpH7-B3 variant N325_20W/GpL16-k0 (antibody, human IgG1, kappa)
heavy: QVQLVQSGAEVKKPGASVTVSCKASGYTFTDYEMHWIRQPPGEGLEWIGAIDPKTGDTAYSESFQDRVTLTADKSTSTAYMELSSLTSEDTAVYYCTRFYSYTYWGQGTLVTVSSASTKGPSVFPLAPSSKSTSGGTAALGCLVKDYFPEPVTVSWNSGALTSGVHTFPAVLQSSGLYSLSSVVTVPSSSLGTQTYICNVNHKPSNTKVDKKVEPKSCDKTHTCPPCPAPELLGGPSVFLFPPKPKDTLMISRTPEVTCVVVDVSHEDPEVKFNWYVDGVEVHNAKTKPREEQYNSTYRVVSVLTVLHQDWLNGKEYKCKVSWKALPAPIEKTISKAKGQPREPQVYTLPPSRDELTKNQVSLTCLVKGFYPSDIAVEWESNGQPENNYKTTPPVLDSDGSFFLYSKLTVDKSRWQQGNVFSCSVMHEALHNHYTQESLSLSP
light: B1 light
notes: also called Ho Ab N325_20W
B14: GpH7-B3 variant P271_08L/GpL16-k0 (antibody, human IgG1, kappa)
heavy: not shown
light: B1 light
notes: also called Ho Ab P271_08L
B15: GpH7-B3 variant P238_09D/GpL16-k0 (antibody, human IgG1, kappa)
heavy: not shown
light: B1 light
notes: also called Ho Ab P238_09D
B16: GpH7-B3 variant N325_15Y/GpL16-k0 (antibody, human IgG1, kappa)
heavy: not shown
light: B1 light
notes: also called Ho Ab N325_15Y
B17: GpH7-B3 variant N325_01G/GpL16-k0 (antibody, human IgG1, kappa)
heavy: not shown
light: B1 light
notes: also called Ho Ab N325_01G
B18: GpH7-B3 variant P238_06M/GpL16-k0 (antibody, human IgG1, kappa)
heavy: not shown
light: B1 light
notes: also called Ho Ab P238_06M
B19: GpH7-B3 variant K334_19Q/GpL16-k0 (antibody, human IgG1, kappa)
heavy: not shown
light: B1 light
notes: also called Ho Ab K334_19Q
B20: GpH7-B3 variant K334_12R/GpL16-k0 (antibody, human IgG1, kappa)
heavy: not shown
light: B1 light
notes: also called Ho Ab K334_12R
B21: GpH7-B3 variant K334_10E/GpL16-k0 (antibody, human IgG1, kappa)
heavy: not shown
light: B1 light
notes: also called Ho Ab K334_10E
B22: GpH7-B3 variant N325_10E/GpL16-k0 (antibody, human IgG1, kappa)
heavy: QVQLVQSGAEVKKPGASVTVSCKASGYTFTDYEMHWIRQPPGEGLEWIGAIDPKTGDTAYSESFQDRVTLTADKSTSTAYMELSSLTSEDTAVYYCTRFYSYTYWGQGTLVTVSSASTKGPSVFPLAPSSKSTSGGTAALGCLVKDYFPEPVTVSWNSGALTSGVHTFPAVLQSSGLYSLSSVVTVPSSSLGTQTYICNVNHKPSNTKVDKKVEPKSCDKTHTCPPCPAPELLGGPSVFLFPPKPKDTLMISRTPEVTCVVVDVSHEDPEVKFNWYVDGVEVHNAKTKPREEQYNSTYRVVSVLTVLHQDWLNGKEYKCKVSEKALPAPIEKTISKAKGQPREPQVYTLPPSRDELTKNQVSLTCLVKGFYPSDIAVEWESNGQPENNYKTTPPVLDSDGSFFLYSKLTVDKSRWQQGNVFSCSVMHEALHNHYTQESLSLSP
light: B1 light
notes: also called Ho Ab N325_10E
B23: GpH7-B3 variant P331_15Y/GpL16-k0 (antibody, human IgG1, kappa)
heavy: not shown
light: B1 light
notes: also called Ho Ab P331_15Y
B24: GpH7-B3 variant L328_02A/GpL16-k0 (antibody, human IgG1, kappa)
heavy: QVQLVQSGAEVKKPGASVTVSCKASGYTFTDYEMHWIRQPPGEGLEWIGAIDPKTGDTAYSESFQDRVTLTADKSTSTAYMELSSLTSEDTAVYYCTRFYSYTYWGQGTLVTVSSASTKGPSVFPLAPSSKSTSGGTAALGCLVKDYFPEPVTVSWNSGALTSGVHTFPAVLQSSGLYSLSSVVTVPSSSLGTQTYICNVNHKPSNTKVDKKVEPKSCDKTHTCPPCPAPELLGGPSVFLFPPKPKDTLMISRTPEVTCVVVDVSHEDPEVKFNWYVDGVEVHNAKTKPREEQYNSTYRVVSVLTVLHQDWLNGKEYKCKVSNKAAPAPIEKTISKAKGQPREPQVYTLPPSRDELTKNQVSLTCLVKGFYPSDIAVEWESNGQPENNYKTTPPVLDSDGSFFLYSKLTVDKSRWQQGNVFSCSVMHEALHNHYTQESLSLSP
light: B1 light
notes: also called Ho Ab L328_02A
B25: GpH7-B3 variant N325_08L/GpL16-k0 (antibody, human IgG1, kappa)
heavy: not shown
light: B1 light
notes: also called Ho Ab N325_08L
B26: GpH7-B3 variant S239_08L/GpL16-k0 (antibody, human IgG1, kappa)
heavy: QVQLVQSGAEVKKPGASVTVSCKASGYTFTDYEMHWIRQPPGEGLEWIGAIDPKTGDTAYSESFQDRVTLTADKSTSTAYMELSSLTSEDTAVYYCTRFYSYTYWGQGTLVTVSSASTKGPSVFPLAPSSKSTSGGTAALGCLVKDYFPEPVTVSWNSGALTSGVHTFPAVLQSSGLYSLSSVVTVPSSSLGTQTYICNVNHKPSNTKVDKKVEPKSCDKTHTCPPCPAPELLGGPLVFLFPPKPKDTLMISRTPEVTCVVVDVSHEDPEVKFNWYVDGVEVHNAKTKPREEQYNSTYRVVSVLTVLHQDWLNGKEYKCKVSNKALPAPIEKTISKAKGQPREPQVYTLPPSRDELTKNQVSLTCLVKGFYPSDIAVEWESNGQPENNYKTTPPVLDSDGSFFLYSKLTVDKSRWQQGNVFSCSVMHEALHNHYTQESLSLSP
light: B1 light
notes: also called Ho Ab S239_08L
B27: GpH7-B3 variant L234_09D/GpL16-k0 (antibody, human IgG1, kappa)
heavy: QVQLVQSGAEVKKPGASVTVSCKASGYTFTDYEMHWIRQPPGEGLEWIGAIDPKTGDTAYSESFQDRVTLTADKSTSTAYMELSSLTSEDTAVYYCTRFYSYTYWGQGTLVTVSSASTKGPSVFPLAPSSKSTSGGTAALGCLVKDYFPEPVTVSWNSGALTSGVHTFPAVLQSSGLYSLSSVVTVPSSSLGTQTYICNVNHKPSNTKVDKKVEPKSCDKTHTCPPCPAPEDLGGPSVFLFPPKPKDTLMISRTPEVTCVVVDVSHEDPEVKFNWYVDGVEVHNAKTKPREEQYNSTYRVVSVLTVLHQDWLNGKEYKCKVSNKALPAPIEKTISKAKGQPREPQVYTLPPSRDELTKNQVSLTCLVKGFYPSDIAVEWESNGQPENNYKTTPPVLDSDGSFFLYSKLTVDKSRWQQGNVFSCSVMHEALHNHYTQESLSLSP
light: B1 light
notes: also called Ho Ab L234_09D
B28: GpH7-B3 variant N325_03V/GpL16-k0 (antibody, human IgG1, kappa)
heavy: not shown
light: B1 light
notes: also called Ho Ab N325_03V
B29: GpH7-B3 variant S267_03V/GpL16-k0 (antibody, human IgG1, kappa)
heavy: not shown
light: B1 light
notes: also called Ho Ab S267_03V
B30: GpH7-B3 variant P238_04F/GpL16-k0 (antibody, human IgG1, kappa)
heavy: not shown
light: B1 light
notes: also called Ho Ab P238_04F
B31: GpH7-B3 variant L235_09D/GpL16-k0 (antibody, human IgG1, kappa)
heavy: not shown
light: B1 light
notes: also called Ho Ab L235_09D
B32: GpH7-B3 variant N325_14T/GpL16-k0 (antibody, human IgG1, kappa)
heavy: not shown
light: B1 light
notes: also called Ho Ab N325_14T
B33: GpH7-B3 variant K334_04F/GpL16-k0 (antibody, human IgG1, kappa)
heavy: not shown
light: B1 light
notes: also called Ho Ab K334_04F
B34: GpH7-B3 variant L328_13S/GpL16-k0 (antibody, human IgG1, kappa)
heavy: not shown
light: B1 light
notes: also called Ho Ab L328_13S
B35: GpH7-B3 variant K334_13S/GpL16-k0 (antibody, human IgG1, kappa)
heavy: not shown
light: B1 light
notes: also called Ho Ab K334_13S
B36: GpH7-B3 variant K334_05P/GpL16-k0 (antibody, human IgG1, kappa)
heavy: not shown
light: B1 light
notes: also called Ho Ab K334_05P
B37: GpH7-B3 variant L328_14T/GpL16-k0 (antibody, human IgG1, kappa)
heavy: not shown
light: B1 light
notes: also called Ho Ab L328_14T
B38: GpH7-B3 variant L234_04F/GpL16-k0 (antibody, human IgG1, kappa)
heavy: not shown
light: B1 light
notes: also called Ho Ab L234_04F
B39: GpH7-B3 variant L328_10E/GpL16-k0 (antibody, human IgG1, kappa)
heavy: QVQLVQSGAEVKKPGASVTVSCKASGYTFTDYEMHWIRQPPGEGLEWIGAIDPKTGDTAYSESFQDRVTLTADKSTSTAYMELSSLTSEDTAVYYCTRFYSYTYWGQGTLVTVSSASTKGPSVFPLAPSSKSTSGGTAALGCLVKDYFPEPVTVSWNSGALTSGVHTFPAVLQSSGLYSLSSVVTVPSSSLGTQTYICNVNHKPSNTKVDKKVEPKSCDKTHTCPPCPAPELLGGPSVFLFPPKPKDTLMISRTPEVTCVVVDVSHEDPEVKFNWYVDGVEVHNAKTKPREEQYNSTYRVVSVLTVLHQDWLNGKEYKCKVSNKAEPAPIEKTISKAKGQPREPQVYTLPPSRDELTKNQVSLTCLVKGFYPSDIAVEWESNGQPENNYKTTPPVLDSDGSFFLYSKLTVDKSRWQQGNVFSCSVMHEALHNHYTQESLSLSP
light: B1 light
notes: also called Ho Ab L328_10E
B40: GpH7-B3 variant L235_15Y/GpL16-k0 (antibody, human IgG1, kappa)
heavy: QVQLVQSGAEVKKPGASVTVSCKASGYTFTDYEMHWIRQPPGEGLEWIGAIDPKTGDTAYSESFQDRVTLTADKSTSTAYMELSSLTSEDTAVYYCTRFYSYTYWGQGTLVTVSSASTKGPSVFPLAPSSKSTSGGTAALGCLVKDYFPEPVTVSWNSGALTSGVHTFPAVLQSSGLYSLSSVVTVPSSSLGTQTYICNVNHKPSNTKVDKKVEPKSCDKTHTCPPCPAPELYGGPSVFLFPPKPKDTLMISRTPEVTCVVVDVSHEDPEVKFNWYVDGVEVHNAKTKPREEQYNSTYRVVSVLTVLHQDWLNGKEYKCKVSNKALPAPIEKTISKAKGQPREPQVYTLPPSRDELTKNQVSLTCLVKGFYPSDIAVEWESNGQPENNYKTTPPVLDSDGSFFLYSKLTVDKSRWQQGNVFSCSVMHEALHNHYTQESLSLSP
light: B1 light
notes: also called Ho Ab L235_15Y
B41: GpH7-B3 variant P331_20W/GpL16-k0 (antibody, human IgG1, kappa)
heavy: not shown
light: B1 light
notes: also called Ho Ab P331_20W
B42: GpH7-B3 variant L328_09D/GpL16-k0 (antibody, human IgG1, kappa)
heavy: not shown
light: B1 light
notes: also called Ho Ab L328_09D
B43: GpH7-B3 variant P331_02A/GpL16-k0 (antibody, human IgG1, kappa)
heavy: not shown
light: B1 light
notes: also called Ho Ab P331_02A
B44: GpH7-B3 variant L235_04F/GpL16-k0 (antibody, human IgG1, kappa)
heavy: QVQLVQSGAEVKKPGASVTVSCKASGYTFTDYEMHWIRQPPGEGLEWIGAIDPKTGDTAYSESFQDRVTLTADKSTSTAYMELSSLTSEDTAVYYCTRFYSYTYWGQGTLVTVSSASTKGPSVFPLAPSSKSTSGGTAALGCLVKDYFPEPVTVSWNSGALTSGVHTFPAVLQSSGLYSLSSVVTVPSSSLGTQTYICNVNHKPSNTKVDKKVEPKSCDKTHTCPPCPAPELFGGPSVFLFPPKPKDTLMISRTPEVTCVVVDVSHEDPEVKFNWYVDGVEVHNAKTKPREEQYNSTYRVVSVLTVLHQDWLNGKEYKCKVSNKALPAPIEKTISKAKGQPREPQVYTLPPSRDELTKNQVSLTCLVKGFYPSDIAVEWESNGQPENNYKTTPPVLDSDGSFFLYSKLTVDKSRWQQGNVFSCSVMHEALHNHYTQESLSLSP
light: B1 light
notes: also called Ho Ab L235_04F
B45: GpH7-B3 variant N325_07I/GpL16-k0 (antibody, human IgG1, kappa)
heavy: not shown
light: B1 light
notes: also called Ho Ab N325_07I
B46: GpH7-B3 variant K334_20W/GpL16-k0 (antibody, human IgG1, kappa)
heavy: not shown
light: B1 light
notes: also called Ho Ab K334_20W
B47: GpH7-B3 variant L235_20W/GpL16-k0 (antibody, human IgG1, kappa)
heavy: not shown
light: B1 light
notes: also called Ho Ab L235_20W
B48: GpH7-B3 variant S239_18N/GpL16-k0 (antibody, human IgG1, kappa)
heavy: not shown
light: B1 light
notes: also called Ho Ab S239_18N
B49: GpH7-B3 variant S239_10E/GpL16-k0 (antibody, human IgG1, kappa)
heavy: not shown
light: B1 light
notes: also called Ho Ab S239_10E
B50: GpH7-B3 variant P331_04F/GpL16-k0 (antibody, human IgG1, kappa)
heavy: not shown
light: B1 light
notes: also called Ho Ab P331_04F
B51: GpH7-B3 variant L234_10E/GpL16-k0 (antibody, human IgG1, kappa)
heavy: not shown
light: B1 light
notes: also called Ho Ab L234_10E
B52: GpH7-B3 variant P238_03V/GpL16-k0 (antibody, human IgG1, kappa)
heavy: not shown
light: B1 light
notes: also called Ho Ab P238_03V
B53: GpH7-B3 variant L234_20W/GpL16-k0 (antibody, human IgG1, kappa)
heavy: not shown
light: B1 light
notes: also called Ho Ab L234_20W

Target: T1, FcγRIIb
Assay: SPR (Biacore), binding relative to GpH7-B3/GpL16-k0 = 100
Protocol: (§1) Analysis of interaction between objective antibody and the FcγR was carried out using Biacore T100 (GE Healthcare). HBS-EP+ (GE Healthcare) was used as the running buffer, and the measurement temperature was set to 25° C. Chips produced by immobilizing the antigen peptide by the amine coupling method to a Series S Sencor Chip CM5 (GE Healthcare), or alternatively, chips produced by allowing preliminarily biotinylated antigen peptides to interact with and immobilize onto a Series S Sensor Chip SA (certified) (GE Healthcare) were used. Antibodies of interest were captured onto an antigen peptide-immobilized chip, and allowed to interact to each FcγR diluted with running buffer. To regenerate and repeatedly use the chip, the antibodies captured on the chip were washed off by reacting 10 mM glycine-HCl, pH 1.5.
(§2) The FcγR-binding activity of each antibody was assessed primarily using as an indicator the FcγR-binding activity and dissociation constant for FcγR.

| Binder | Ho/Con_2b |
| --- | --- |
| B1 | 47.8 % of control |
| B2 | 140 % of control |
| B3 | 49.4 % of control |
| B4 | 102 % of control |
| B5 | 35.3 % of control |
| B6 | 35.3 % of control |
| B7 | 101 % of control |
| B8 | 37.6 % of control |

Target: T2, FcγRIIa R
Assay: SPR Biacore; vs GpH7-B3/GpL16-k0 =100
Protocol: as §1, §2

| Binder | Ho/Con_2aR |
| --- | --- |
| B9 | 126 % of control |
| B10 | 100 % of control |
| B11 | 105 % of control |
| B12 | 74.8 % of control |
| B13 | 56 % of control |
| B14 | 102 % of control |
| B15 | 13 % of control |
| B16 | 42.6 % of control |
| B17 | 26.7 % of control |
| B18 | 88.9 % of control |
| B19 | 108 % of control |
| B20 | 110 % of control |
| B21 | 106 % of control |
| B22 | 49.9 % of control |
| B23 | 105 % of control |
| B24 | 97 % of control |
| B25 | 95 % of control |
| B26 | 106 % of control |
| B27 | 42.8 % of control |
| B28 | 37.8 % of control |
| B29 | 115 % of control |
| B30 | 146 % of control |
| B31 | 73 % of control |

| Binder | Ho/Con_2aR |
| --- | --- |
| B32 | 60.2 % of control |
| B33 | 110 % of control |
| B34 | 108 % of control |
| B35 | 106 % of control |
| B36 | 102 % of control |
| B37 | 118 % of control |
| B38 | 43.3 % of control |
| B39 | 48.1 % of control |
| B40 | 111 % of control |
| B41 | 102 % of control |
| B42 | 68.8 % of control |
| B43 | 102 % of control |
| B44 | 98.9 % of control |
| B45 | 77 % of control |
| B46 | 96.4 % of control |
| B47 | 114 % of control |
| B48 | 103 % of control |
| B49 | 122 % of control |
| B50 | 106 % of control |
| B51 | 39.9 % of control |
| B52 | 116 % of control |
| B53 | 53.8 % of control |
